In patent US20140193417A1 (LUDWIG INSTITUTE FOR CANCER RESEARCH, published 2014):

Target: T1, His-NaPi2b-ECD (His-tagged aa 188-361 of NaPi2b, Sf9 insect cells) (human, UniProt O95436 188-361)
T1 construct: range 188-361; Baculovirus expression; also called His-tagged protein in Sf9 insect cells; not shown: His tag
T1 sequence (looked up): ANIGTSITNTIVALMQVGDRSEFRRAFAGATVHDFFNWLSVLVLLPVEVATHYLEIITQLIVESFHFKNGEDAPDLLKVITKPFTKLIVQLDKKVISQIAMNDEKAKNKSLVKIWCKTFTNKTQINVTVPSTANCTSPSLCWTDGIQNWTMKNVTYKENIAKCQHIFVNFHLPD
Test: Western blot

B1: Murine mAb MX35 (IgG1) (antibody, V domains shown)
VH: QVQLKQSGAELVKPGASVKMSCKASGYTFTGYNIHWVKQTPGQGLEWIGAIYPGNGDTSYKQKFRGKASLTADTSSSTVYMQLSSLTSEDSAVYYCARGETARATFAYWGQGTLVTVSA
VL: DIQMTQTTSSLPASLGDRVTISCSASQDIGNFLNWYQQKPDGTVKVLIYYTSSLYSGVPSRFSGSGSGTDYSLTISNLEPEDIATYYCQQYSKLPLTFGAGTKLELKR
notes: also called MX35 MAb; monoclonal antibody MX35
  binding result: binds
